In test [1] the target is Myc-GST融合蛋白 (Myc标签与谷胱甘肽融合的蛋白). Put plainly: indirect ELISA, Myc-GST coated at 5 μg/mL, HRP anti-His secondary; heat test at 80℃.
Test [2] deals with Myc-GST融合蛋白 (Myc标签与谷胱甘肽融合的蛋白). Description: indirect ELISA, Myc-GST coated at 5 μg/mL, HRP anti-His secondary; heat test at 90℃. Background: An ELISA detects its analyte on a solid surface through an enzyme-linked reagent.
Test [3] addresses Myc-GST融合蛋白 (Myc标签与谷胱甘肽融合的蛋白). Description: indirect ELISA, Myc-GST coated at 5 μg/mL, HRP anti-His secondary; heat test at 70℃.

B1: 抗c-Myc标签单域重链抗体 (anti-c-Myc tag single-domain heavy-chain antibody, SEQ ID NO.:1) (VHH, not shown: small tags and cut ends)
VHH: QLQLVESGGGLVQAGGSLRLSCAVSGFTFSANAMSWVRQAPGKGPEWVSSINRGGASAEYADSVKGRFTISRDDAKNTLYLQMNSLKPEDTALYYCARGNYRGSYFNGPRTYWGRGTQVTVSP
Consider B1, for which the OD450 in test [1] was determined as 1.2 OD450; in test [2] it was 1.1 OD450; in test [3], 1.4 OD450.

For the origin of these results see patent publication CN107042098A.
